US20250340659A1 (PETMEDIX, published 2025)
Positions count from the first letter of the chain named.

B1: PMX065 (antibody, V domains shown)
VH: EVQLVESGGDLVKPGGSLRLSCVASGFTFNNYEMYWVRQAPGKGLEWVARIYESGSTTFSAEAVTGRFTISRDNAKNMVYLQMNSLRAEDTAVYYCASASSSSWRFDYWGQGTLVTVSS
VL: SYVLTQLPSVSVTLGQTARITCGGDSIGRKNVCWFQQRLGQAPELIIYDDRSRPSGIPERFSGANSGNTATLTISGALAEDEADYYCQVWDSSTGVFGGGTHLTVL
notes: also called PMX65
B2: PMX036 (antibody, V domains shown)
VH: EVQLVESGGDLVKPGGSLRLSCVASGFTFSSYHMSWVRQAPGKGLQWVAYITSGGRTTSYADAVKGRFTISRDNAKNTLYLQMNSLRAEDTAVYYCASDLVLVLGGADYWGQGTLVTVSS
VL: SYELTQPPSVNVTLRETAHITCGGDSIGRKYVQWIQQNPGQAPVVIIYKDTNRPTGIPERFSGANSGNTATLTISGALAEDEADYYCQVGDSGTKAVFGGGTHLTVL
notes: also called PMX36
B3: PMX032 (antibody, V domains shown)
VH: B2 VH with T69I, V103I
VL: B2 VL with T51N, T94S
notes: also called PMX32
B4: PMX033 (antibody, V domains shown)
VH: B2 VH with N84K, D108E
VL: B2 VL with T51S, T94S
notes: also called PMX33
B5: PMX064 (antibody, V domains shown)
VH: B2 VH with R56I, V103I
VL: B2 VL with R15S, T51S
notes: also called PMX64
B6: PMX042 (antibody, V domains shown)
VH: B2 VH with R56S, N84D, E89D, V103L
VL: B2 VL with N38H, T51Y
notes: also called PMX42
B7: PMX045 (antibody, V domains shown)
VH: B2 VH with S35T, R56I, N84S, V93M, S98R, V103L
VL: B2 VL with T51S
notes: also called PMX45
B8: PMX028 (antibody, V domains shown)
VH: B2 VH with L4M, S31D, R56S, T57S, L104V, A107G, D108V
VL: B2 VL with R29S, T51S, G100E, H103Q
notes: also called PMX28
B9: PMX038 (antibody, V domains shown)
VH: B2 VH with N84K, S98R, D108E
VL: B2 VL with T51S, T94S
notes: also called PMX38
B10: PMX034 (antibody, V domains shown)
VH: B2 VH with S31N, T52V, R56S, T57S, S59T, N84T, V103L, L104V
VL: B2 VL with R29S, T51S
notes: also called PMX34
B11: PMX063 (antibody, V domains shown)
VH: EVQLVESGGDLVRPGGSLRLSCVASGFTFNNYHMSWVRQAPGKGLQWVAFINSGGSGTTFADVVRGRFTISRDYAKNALYLQMNSLRAEDTAVYYCASGSIWTHFDYWGQGTLVTVSS
VL: SFVLTQLPSVSVTLRQTARITCGGDIIGSKNVYWYQQRLGQAPVLIIYRDNNRPTGIPERFSGASSGNTATLTISGALAEDEADYYCQVWDNSNKAMFGGGTHLTVL
notes: also called PMX63
B12: PMX060 (antibody, V domains shown)
VH: EVQLVESGGDLMKPGGSLRLSCVASGFTFSSFPMSWVRQAPGKGLQWVAYIHSGGSSTSYADAVKGRFTISRDNAKNTLYLQMNSLRAEDTAIYYCARTFPTVAADNWFYYWGQGTLVTVSS
VL: SYVLTQLPSKNVTLKQAAHITCGGDNIGSKSVHWYQQKLGQAPVLIIYYDSSRPTGIPERFSGANSGNTATLTISGALAEDEADYYCQVWDSSAKWVFGEGTQLTVL
notes: also called PMX60
B13: PMX061 (antibody, V domains shown)
VH: B12 VH with M12V, H52N, A63V, E89D, I93V, A105T
VL: B12 VL
notes: also called PMX61

Target: T1, canine OX40L, full length membrane form, expressed on HEK293 cells (canine)
T1 construct: also called OX40L expressing HEK; HEK OX40L cells
T1 chain: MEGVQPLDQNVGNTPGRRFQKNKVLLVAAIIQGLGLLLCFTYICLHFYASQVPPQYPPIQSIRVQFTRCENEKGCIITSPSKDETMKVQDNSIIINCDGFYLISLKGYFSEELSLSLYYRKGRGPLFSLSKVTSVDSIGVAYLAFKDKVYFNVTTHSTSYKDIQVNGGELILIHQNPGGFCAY
Assay: flow cytometry
Outline: (§1)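 CHO supernatants at 1, 5 or 10 μg/ml in PBS/3% FBS incubated 30′ on ice with cells surface-expressing canine OX40L. Bound antibody detected with fluorescent anti-canine Fc secondary (1:1000, 30 min, dark) and measured by flow cytometry, with parental WT HEK signal subtracted where stated.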
For B1, the “GEO mean OX40L expressing HEK” value was 3.55e+06.
B2 was tested, and the “GEO mean OX40L expressing HEK” value was 1.31e+06.
For B3, the “GEO mean OX40L expressing HEK” value was 1.45e+06.
B4 was tested, and the “GEO mean OX40L expressing HEK” value was 1.46e+06.
In the case of B5, the “GEO mean OX40L expressing HEK” value is reported as 3.45e+06.
With B6 the “GEO mean OX40L expressing HEK” value was 1.51e+06.
In the case of B7, the “GEO mean OX40L expressing HEK” value is reported as 1.47e+06.
In the case of B8, the “GEO mean OX40L expressing HEK” value is reported as 1.05e+06.
In the case of B9, the “GEO mean OX40L expressing HEK” value is reported as 1.56e+06.
In the case of B10, the “GEO mean OX40L expressing HEK” value is reported as 1.39e+06.
For B11, the “GEO mean OX40L expressing HEK” value was 3.18e+06.
For B12, the “GEO mean OX40L expressing HEK” value was 3.1e+06.
For B13, the “GEO mean OX40L expressing HEK” value was 3.29e+06.

Target: T1, canine OX40L, full length membrane …
Assay: cell-based or functional assay
With B1 the “% Signal Inhibition Average” value was 72.6%, the “% Signal Inhibition Rep1” value was 62.7% and the “% Signal Inhibition Rep2” value was 85.3%. The “% Signal Inhibition Rep3” value was 69.9%.
B2 was tested, and the “% Signal Inhibition Average” value was 77.4%, the “% Signal Inhibition Rep1” value was 87.6% and the “% Signal Inhibition Rep2” value was 79.1%. For the same binder, the “% Signal Inhibition Rep3” value was 65.5%.
In the case of B3, the “% Signal Inhibition Average” value is reported as 70%, the “% Signal Inhibition Rep1” value is reported as 76.8% and the “% Signal Inhibition Rep2” value is reported as 57.4%. For the same binder, the “% Signal Inhibition Rep3” value was 75.7%.
In the case of B4, the “% Signal Inhibition Average” value is reported as 60.3%, the “% Signal Inhibition Rep1” value is reported as 55.8% and the “% Signal Inhibition Rep2” value is reported as 69.8%. The “% Signal Inhibition Rep3” value was 55.4%.
B5 was tested, and the “% Signal Inhibition Average” value was 91.1%, the “% Signal Inhibition Rep1” value was 88.9% and the “% Signal Inhibition Rep2” value was 94.8%. For the same binder, the “% Signal Inhibition Rep3” value was 89.7%.
In the case of B6, the “% Signal Inhibition Average” value is reported as 78.8%, the “% Signal Inhibition Rep1” value is reported as 77.8% and the “% Signal Inhibition Rep2” value is reported as 87.5%. The “% Signal Inhibition Rep3” value was 71%.
In the case of B7, the “% Signal Inhibition Average” value is reported as 75.9%, the “% Signal Inhibition Rep1” value is reported as 79.9% and the “% Signal Inhibition Rep2” value is reported as 81.7%. The “% Signal Inhibition Rep3” value was 66.2%.
In the case of B8, the “% Signal Inhibition Average” value is reported as 66.4%, the “% Signal Inhibition Rep1” value is reported as 61.7% and the “% Signal Inhibition Rep2” value is reported as 75.4%. For the same binder, the “% Signal Inhibition Rep3” value was 62.1%.
In the case of B9, the “% Signal Inhibition Average” value is reported as 68.5%, the “% Signal Inhibition Rep1” value is reported as 79.8% and the “% Signal Inhibition Rep2” value is reported as 75%. For the same binder, the “% Signal Inhibition Rep3” value was 50.8%.
For B10, the “% Signal Inhibition Average” value was 64.2%, the “% Signal Inhibition Rep1” value was 76.4% and the “% Signal Inhibition Rep2” value was 64.7%. For the same binder, the “% Signal Inhibition Rep3” value was 51.6%.
B11 was tested, and the “% Signal Inhibition Average” value was 74.4%, the “% Signal Inhibition Rep1” value was 68.3% and the “% Signal Inhibition Rep2” value was 83%. The “% Signal Inhibition Rep3” value was 72%.
With B12 the “% Signal Inhibition Average” value was 66.1%, the “% Signal Inhibition Rep1” value was 58.9% and the “% Signal Inhibition Rep2” value was 68.4%. For the same binder, the “% Signal Inhibition Rep3” value was 71.1%.
B13 was tested, and the “% Signal Inhibition Average” value was 56.1%, the “% Signal Inhibition Rep1” value was 51% and the “% Signal Inhibition Rep2” value was 61.6%. The “% Signal Inhibition Rep3” value was 55.7%.

Target: T1, canine OX40L, full length membrane …
Assay: flow cytometry, OX40L HEK minus WT HEK
Outline: as §1
Work on B1 yielded a GEO mean difference of 3.52e+06.
In the case of B2, the GEO mean difference is reported as 1.28e+06.
B3 gave a GEO mean difference of 1.42e+06.
In the case of B4, the GEO mean difference is reported as 1.43e+06.
With B5 the GEO mean difference was 3.42e+06.
In the case of B6, the GEO mean difference is reported as 1.48e+06.
B7 was tested, and the GEO mean difference was 1.44e+06.
For B8, the GEO mean difference was 1.02e+06.
Binder B9 has a GEO mean difference of 1.53e+06.
B10 was tested, and the GEO mean difference was 1.36e+06.
Work on B11 yielded a GEO mean difference of 3.15e+06.
In the case of B12, the GEO mean difference is reported as 3.07e+06.
In the case of B13, the GEO mean difference is reported as 3.26e+06.

Target: T2, recombinant canine OX40L ECD-TNCc-HIS protein (canine)
T2 construct: also called Trimeric OX40L probe (HIS tag); trimeric canine OX40L
T2 chain: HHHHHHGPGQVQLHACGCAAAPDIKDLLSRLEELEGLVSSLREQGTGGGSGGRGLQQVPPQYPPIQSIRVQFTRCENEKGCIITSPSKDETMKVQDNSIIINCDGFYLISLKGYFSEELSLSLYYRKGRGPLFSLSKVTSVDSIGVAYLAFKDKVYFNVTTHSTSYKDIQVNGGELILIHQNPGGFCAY
Assay: SPR Koff (kd1)
Outline: (§2)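 Purified antigen amine-coupled at low density to a CM5 chip; candidate antibodies injected as analyte over a concentration range. Kinetic curves fitted with a bivalent analyte model to give functional affinity and dissociation rates.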
Work on B1 yielded a koff of 0.0125 s⁻¹.
B2 was tested, and the koff was 0.00166 s⁻¹.
B3 was tested, and the koff was 0.00586 s⁻¹.
With B4 the koff was 0.0103 s⁻¹.
In the case of B5, the koff is reported as 0.0352 s⁻¹.
Binder B6 has a koff of 0.0292 s⁻¹.
For B7, the koff was 0.00484 s⁻¹.
With B8 the koff was 0.00935 s⁻¹.
B9 was tested, and the koff was 0.0105 s⁻¹.
For B10, the koff was 0.135 s⁻¹.
With B11 the koff was 9.05e-05 s⁻¹.
Work on B12 yielded a koff of 0.00933 s⁻¹.
For B13, the koff was 0.00746 s⁻¹.

Target: T2, recombinant canine OX40L ECD-TNCc-HIS …
Assay: SPR Koff (kd2)
Outline: as §2
With B1 the koff was 0.412 s⁻¹.
For B2, the koff was 0.0522 s⁻¹.
B3 was tested, and the koff was 1.71e-05 s⁻¹.
B4 was tested, and the koff was 0.00101 s⁻¹.
Binder B5 has a koff of 0.000921 s⁻¹.
Work on B6 yielded a koff of 0.00056 s⁻¹.
Binder B7 has a koff of 0.000554 s⁻¹.
Binder B8 has a koff of 0.000627 s⁻¹.
In the case of B9, the koff is reported as 0.000796 s⁻¹.
B10 gave a koff of 0.000252 s⁻¹.
For B11, the koff was 5.21 s⁻¹.
B12 gave a koff of 0.000925 s⁻¹.
B13 gave a koff of 0.000729 s⁻¹.

Target: T2, recombinant canine OX40L ECD-TNCc-HIS …
Assay: SPR KD1, bivalent analyte model
Outline: as §2
In the case of B1, the Kd is reported as 107 nM.
Work on B2 yielded a Kd of 21.6 nM.
B3 gave a Kd of 7.2 nM.
Work on B4 yielded a Kd of 36.4 nM.
In the case of B5, the Kd is reported as 145 nM.
Work on B6 yielded a Kd of 274 nM.
Binder B7 has a Kd of 10.4 nM.
B8 gave a Kd of 17 nM.
With B9 the Kd was 100 nM.
B10 gave a Kd of 7230 nM.
With B11 the Kd was 0.271 nM.
B12 gave a Kd of 70.9 nM.
Binder B13 has a Kd of 89.6 nM.
